Experiment [1] addresses thrombomodulin fragment 4-6 (TM4-6). The experiment is described as follows: competition in a kinetic assay.
Experiment [2] concerns the target Fl-FPR-inhibited thrombin (UniProt P00734). The experiment is described as follows: other fluorescence titration.

The values that follow come from article PMC2731815.

As usually defined, the Kd is the free concentration of one partner at which half of the binding sites on the other are occupied at equilibrium, for simple one-to-one binding. Lower therefore signals tighter binding. In experiment [1], “Ser-195 to Ala (S195A) substitution mutant of thrombin (from UniProt P00734 44-622) (enzyme)” had a Kd of 9 nM.

For the substance “thrombomodulin fragment 4-6 (TM4-6) (domain or fragment)”, in experiment [2], the Kd came out at 3.5 nM.
